What was measured:
Assay in all cases: ELISA on immobilized antigen, streptavidin-HRP detection; value is the average over oligomer, monomer and fibril
[1] = target: amyloid beta 1-42 fibril (UniProt P05067)
[2] = target: amyloid beta 1-42 oligomer (UniProt P05067)
[3] = target: amyloid beta 1-42 monomer (UniProt P05067)
Sequence of amyloid beta 1-42 monomer (P05067 672-713 limits assumed): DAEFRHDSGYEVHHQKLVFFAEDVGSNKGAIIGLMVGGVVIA

Sequence of amyloid beta 1-42 oligomer (P05067 672-713 limits assumed): as above
Sequence of amyloid beta 1-42 fibril (P05067 672-713 limits assumed): as above

EC50 [1]: 0.031 µg/mL | EC50 [2]: 0.031 µg/mL | EC50 [3]: 0.031 µg/mL
Substance: 6E10 antibody (biotinylated)

— US20190292247A1
